Data published in paper PMC3789972, “Human Mitochondrial Chaperone (mtHSP70) and Cysteine Desulfurase (NFS1) Bind Preferentially to the Disordered Conformation, Whereas Co-chaperone (HSC20) Binds to the Structured Conformation of the Iron-Sulfur Cluster Scaffold Protein (ISCU)*” (The Journal of Biological Chemistry, 2013).
One block for each molecule: values may come before it.

Tests used:
[1] = target: human ISCU(H105A), mature form (human); experiment: NMR titration; 1H,15N HSQC / TROSY-HSQC of 0.5 mM U-15N-ISCU or variant, aliquots of 0.5 mM unlabeled mtHSP70 added up to equimolar; TKDM buffer (50 mM Tris-HCl pH 7.5, 150 mM KCl, 5 mM DTT, 10 mM MgCl2), 25 °C; %S from the Trp-76 cross-peaks
[2] = target: human ISCU(N90A), mature form (human); experiment: as above
[3] = target: human ISCU(N90A), mature form (human); experiment: NMR titration; 1H,15N TROSY-HSQC of 0.5 mM U-15N-ISCU or U-15N-ISCU(N90A), aliquots of 0.4 mM unlabeled HSC20 added up to equimolar; TKDM buffer, 25 °C; %S from the Trp-76 cross-peaks and chemical shift perturbations
[4] = target: human iron-sulfur cluster scaffold protein ISCU, wild type, mature form (human) (UniProt Q9H1K1); experiment: as above
[5] = target: human mitochondrial DnaK-type chaperone mtHSP70, mature form (human) (UniProt P38646)
human mitochondrial DnaK-type chaperone mtHSP70, mature form (human), sequence (P38646 47-679): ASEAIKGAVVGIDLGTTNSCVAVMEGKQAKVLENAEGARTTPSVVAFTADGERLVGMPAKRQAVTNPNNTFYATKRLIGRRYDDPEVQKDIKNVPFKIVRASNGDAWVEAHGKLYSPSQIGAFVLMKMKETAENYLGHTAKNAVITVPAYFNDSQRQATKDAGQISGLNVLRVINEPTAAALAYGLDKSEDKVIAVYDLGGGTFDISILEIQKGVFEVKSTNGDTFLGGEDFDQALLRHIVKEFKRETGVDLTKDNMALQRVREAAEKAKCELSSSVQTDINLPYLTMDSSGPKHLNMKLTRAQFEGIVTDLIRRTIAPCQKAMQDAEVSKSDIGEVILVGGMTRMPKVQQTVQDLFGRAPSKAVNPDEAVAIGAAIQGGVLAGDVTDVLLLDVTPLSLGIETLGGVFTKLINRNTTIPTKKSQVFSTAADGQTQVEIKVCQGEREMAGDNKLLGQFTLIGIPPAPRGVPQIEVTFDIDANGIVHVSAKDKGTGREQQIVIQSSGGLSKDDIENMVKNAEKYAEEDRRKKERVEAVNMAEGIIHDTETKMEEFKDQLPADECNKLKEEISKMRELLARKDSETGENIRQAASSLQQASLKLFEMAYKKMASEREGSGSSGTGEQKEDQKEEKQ

[6] = target: human mitochondrial DnaK-type chaperone mtHSP70, mature form (human, UniProt P38646 47-679); experiment: cell-based or functional assay
human mitochondrial DnaK-type chaperone mtHSP70, mature form (human, UniProt P38646 47-679), sequence (P38646 47-679): as above

Molecule: human ISCU(N90A), mature form (natural protein)
ATPase activity of 1 μM mtHSP70: concentration of ISCU(N90A) required for half-maximal stimulation in the presence of 5 μM HSC20, double-reciprocal plot [5]: 3.5 µM
ATPase activity of 1 μM mtHSP70: maximal stimulation by ISCU(N90A) in the presence of 5 μM HSC20, double-reciprocal plot [5]: 8 fold
ATPase activity of 1 μM mtHSP70 as a function of added ISCU(N90A) up to 24 μM in the presence of 5 μM HSC20: increase over basal activity [5]: 7 fold

B1: human iron-sulfur cluster scaffold protein ISCU, wild type, mature form (natural protein, UniProt Q9H1K1 35-167, looked up)
chain: YHKKVVDHYENPRNVGSLDKTSKNVGTGLVGAPACGDVMKLQIQVDEKGKIVDARFKTFGCGSAIASSSLATEWVKGKTVEEALTIKNTDIAKELCLPPVKLHCSMLAEDAIKAALADYKLKQEPKKGEAEKK
ATPase activity of 1 μM mtHSP70: increase over basal activity with 15 μM ISCU and 4 μM HSC20 [6]: ~15 fold
ATPase activity of 1 μM mtHSP70: maximal stimulation upon adding ISCU in the presence of 5 μM HSC20, double-reciprocal plot [6]: ~17 fold

Continued, values first:

%S of ISCU(H105A) at mole fraction 1.0 of added mtHSP70 [1]: 0.54%
%S of ISCU(N90A) at mole fraction 1.0 of added mtHSP70 [2]: 83%
Molecule: human mitochondrial DnaK-type chaperone mtHSP70, mature form (from UniProt P38646 47-679) (natural protein)

%S of ISCU(N90A) after adding 1 eq of HSC20 [3]: 99%
%S of ISCU after adding equimolar HSC20 [4]: 31%
Molecule: human mitochondrial DnaJ-type co-chaperone HSC20, mature form (natural protein)
